This is an account of results in PMC8811538, “Pilot scale production, extraction and purification of a thermostable phycocyanin from Synechocystis sp. PCC 6803” (Bioresource Technology, 2022).

Data set [1] concerns the molecule itself. The data set is described as follows: SEC; purified, freeze-dried Te-PC resuspended in 15 mM citric acid-trisodium citrate pH 6.0; 250 µL (425 µg Te-PC) on Superdex-200 10/300 GL in 100 mM trisodium citrate, pH 6.0, 8 °C, 0.5 mL/min; absorption at 280 and 615 nm; sizes from molecular weight standards (apparent); peaks about 5% hexamer, 80% trimer, 15% (ɑβ) monomer.

For data set [2], the target named is T1, phycocyanin β-subunit (CpcB) of Te-PC (Thermosynechococcus elongatus BP-1, UniProt P50033 1-172, phycobilin chromophore (chromophorylated; sites not given)).
T1 construct: phycocyanin beta-subunit CpcB of Thermosynechococcus elongatus BP-1, expressed from the cpcBACD (TeBACD) operon; source: Synechocystis sp
T1 sequence (looked up): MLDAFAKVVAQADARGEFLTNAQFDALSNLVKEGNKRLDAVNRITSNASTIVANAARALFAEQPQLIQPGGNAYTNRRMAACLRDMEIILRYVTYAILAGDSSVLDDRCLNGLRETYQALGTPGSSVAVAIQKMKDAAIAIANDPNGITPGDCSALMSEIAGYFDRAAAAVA
The data set is described as above. The following applies: both partners purified.

Where “and” joins values, the source holds several entries; their conditions need not be identical. Identical values can stand only once.

B1: thermostable phycocyanin from Thermosynechococcus elongatus BP-1, (ɑβ) monomer (complex)
chain 1: not shown
chain 2: MLDAFAKVVAQADARGEFLTNAQFDALSNLVKEGNKRLDAVNRITSNASTIVANAARALFAEQPQLIQPGGNAYTNRRMAACLRDMEIILRYVTYAILAGDSSVLDDRCLNGLRETYQALGTPGSSVAVAIQKMKDAAIAIANDPNGITPGDCSALMSEIAGYFDRAAAAVA
modifications: phycobilin chromophore (chromophorylated; sites not given) | phycobilin chromophore (chromophorylated; sites not given)
notes: phycocyanin alpha-subunit CpcA of Thermosynechococcus elongatus BP-1, expressed from the cpcBACD (TeBACD) operon; phycocyanin beta-subunit CpcB of Thermosynechococcus elongatus BP-1, expressed from the cpcBACD (TeBACD) operon; The construct is described in the supplementary materials and in Puzorjov et al., 2021; also called Te-PC; PC; source: Synechocystis sp
The term stoichiometry N denotes the number of molecules, sites or subunits per partner or assembly. In the case of B1, in data set [1], the “stoichiometry N” value was 6 and 3.

B2: phycocyanin ⍺-subunit (CpcA) of Te-PC (natural protein)
chain: not shown
modifications: phycobilin chromophore (chromophorylated; sites not given)
notes: phycocyanin alpha-subunit CpcA of Thermosynechococcus elongatus BP-1, expressed from the cpcBACD (TeBACD) operon; source: Synechocystis sp
Take B2: the binding result in data set [2] is “binds”.
